Experiment [1] has as its target NRP1 expressed on the surface of cancer cells (NRP1-overexpressing patient-derived cells); U87MG glioblastoma … (human, UniProt O14786 22-923). Description: cell-based or functional assay.
Experiment [2] deals with T1, human NRP1 protein (human, UniProt O14786-2 22-644, limits assumed).
T1 construct: Protein used for ELISA coating (200 ng per well) and SPR; also called Neuropilin 1
T1 sequence (looked up): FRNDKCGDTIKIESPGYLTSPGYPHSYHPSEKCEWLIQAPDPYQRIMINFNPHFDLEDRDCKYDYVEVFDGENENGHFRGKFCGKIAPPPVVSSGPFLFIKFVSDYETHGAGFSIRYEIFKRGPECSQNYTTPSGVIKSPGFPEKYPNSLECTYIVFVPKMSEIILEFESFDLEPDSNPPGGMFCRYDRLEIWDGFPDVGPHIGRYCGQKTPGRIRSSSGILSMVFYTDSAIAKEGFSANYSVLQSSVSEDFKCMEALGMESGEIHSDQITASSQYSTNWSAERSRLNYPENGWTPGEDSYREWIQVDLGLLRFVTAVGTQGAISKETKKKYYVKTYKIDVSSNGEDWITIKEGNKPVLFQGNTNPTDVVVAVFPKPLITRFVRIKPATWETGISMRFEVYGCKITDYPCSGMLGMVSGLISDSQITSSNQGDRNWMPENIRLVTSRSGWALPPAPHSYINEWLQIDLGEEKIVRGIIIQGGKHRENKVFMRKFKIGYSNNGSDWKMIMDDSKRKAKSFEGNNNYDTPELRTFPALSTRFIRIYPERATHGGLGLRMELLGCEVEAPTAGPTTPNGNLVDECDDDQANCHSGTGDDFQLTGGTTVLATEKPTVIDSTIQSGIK
In words: IgG on human NRP1; text says ELISA and SPR, the legend of FIG. 14 says ELISA. A general note: An ELISA detects its analyte on a solid surface through an enzyme-linked reagent.

Numbering of substitutions follows the chain as printed.

B1: IRCR-101 (3H10) anti-NRP1 IgG (antibody, V domains shown)
VH: EVQLLESGGGLVQPGGSLRLSCAASGFTFSSYYMSWVRQAPGKGLEWVSAISPGSSNKYYADSVKGRFTISRDNSKNTLYLQMNSLRAEDTAVYYCARRKYMFDYWGQGTLVTVSS
VL: QSVLTQPPSASGTPGQRVTISCTGSSSNIGNNDVYWYQQLPGTAPKLLIYSDSNRPSGVPDRFSGSKSGTSASLAISGLRSEDEADYYCASWDSSLSGYVFGGGTKLTVL
B1: the “inhibition of tumor cells migration in patient-derived cells” value (“inhibition of tumor cells migration” below) in experiment [1] was above 50%.

B2: 4F12 anti-NRP1 IgG (antibody, V domains shown)
VH: B1 VH with S31G, Y33A, A50G, S56G, N57S, K58T, R98K, Y101T, M102R
VL: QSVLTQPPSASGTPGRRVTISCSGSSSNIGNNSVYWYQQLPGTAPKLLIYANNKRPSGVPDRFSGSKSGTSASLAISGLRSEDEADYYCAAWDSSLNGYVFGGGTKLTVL
notes: scFv converted to IgG and made in the Expi 293F system, 150 kD; also called 4F12 antibody
Take B2: the “inhibition of tumor cells migration” value in experiment [1] is 40%. Besides, in experiment [2], the Kd (in general, the free concentration of one partner at which half of the binding sites on the other are occupied at equilibrium, for simple one-to-one binding) is 0.6 nM.

B3: 1A03 anti-NRP1 IgG (antibody, V domains shown)
VH: B1 VH with K65Q, Y101K, M102S
VL: B1 VL with T23S, S25P, Y35S, S53N, A90G, S91A, D93V, S94A, G98A
Take B3: the “inhibition of tumor cells migration” value in experiment [1] was above 50%.
